Experimental data taken from patent US20120107932A1 (published 2012).

Biological target: PRRS virus (PRRSV)
Assay: cell-based or functional assay

Row | Binder | CPE caused by PRRSV on Marc-145 and PAM cells, blocker at 1 µg/well ('++' means CPE in 50% cells) [% cells with CPE]
1 | GAGDGSDEEVDGKA [NMHC II-A artificial polypeptide (Seq ID No: 3)] | 50
2 | GAGDGSDEE [NMHC II-A artificial polypeptide (Seq ID No: 2)] | 50
3 | KADGAEAKPAE [NMHC II-A artificial polypeptide (Seq ID No: 4)] | 50
